# Experimental data: PMC6821881 (2019)
# Residue numbers refer to the chain shown, from its start.
# B1: 2H-15 (antibody, V domains shown)
# VH: EVQLVQSGAEVKKPGASVKVSCKASGYTFTSYDVNWVRQATGQGLEWMGWMNPNSGNTGYAQKFQGRVTMTRNTSISTAYMELSSLRSEDTAVYYCARVSSGSYYGSYYYYYYGMDVWGQGTTVTVSS
# VL: SYELTQPPSASGTPGQRVTISCSGSSSNIGNNYVHWYQQLPGSAPKLLIYRNNQRPSGVPDRFSGSKSGTSGSLAISGLRSEDEADYYCASWDDSLSGHWVFGGGTKVTVL
# B2: 2H-10 (antibody, V domains shown)
# VH: B1 VH with E1Q, A9V, K19E, K23Q, Y27I, F29S, V34I, T41N
# VL: B1 VL
# B3: 2H-5 (antibody, V domains shown)
# VH: B1 VH with E1Q, K19N, S31M, V34I, A40T
# VL: B1 VL
# B4: 2H-1 (antibody, V domains shown)
# VH: B1 VH with E1Q, V34I
# VL: B1 VL
# B5: 2H-9 (antibody, V domains shown)
# VH: B1 VH with A9G, E10K, K12V, K13E, P14L, S31T, V34I
# VL: B1 VL
# B6: 2H-14 (antibody, V domains shown)
# VH: B1 VH with E1Q, Q3H, L4A, D33G, V34I
# VL: B1 VL
# B7: 2H-3 (antibody, V domains shown)
# VH: B1 VH with E1Q, A9R, D33E, V34I
# VL: B1 VL
# B8: 2H-6 (antibody, V domains shown)
# VH: B1 VH with M51L, Q62E
# VL: B1 VL
# B9: 2H-2 (antibody, V domains shown)
# VH: QVQLVQSGAEVKKPGSSVKVSCKASGGTFSSYAISWVRQATGQGLEWMGGIIPIFGTANYAQKFQGRVTITADESTSTAYMELSSLRSEDTAVYYCARVSSGSYYGSYYYYYYGMDVWGQGTTVTVSS
# VL: B1 VL
# B10: 2H-16 (antibody, V domains shown)
# VH: B1 VH with E1Q, V34I, Y60C
# VL: B1 VL
# B11: 2H-4 (antibody, V domains shown)
# VH: B1 VH with E1Q, A9R, A24G, V34I, T41P, E89G
# VL: B1 VL
# B12: 2L-1 (antibody, V domains shown)
# VH: EVQLVQSGAEVKKPGASVKVSCKASGYTFTSGHTFPSYDINWVRQATGQGLEWMGWMNPNRGNTGYAQKFQGRVTMTRNTSINTAYMELSSLRSEDTAVYYCARVRSGTNYGSYYYYYYGMDVWGQGTTVTVSS
# VL: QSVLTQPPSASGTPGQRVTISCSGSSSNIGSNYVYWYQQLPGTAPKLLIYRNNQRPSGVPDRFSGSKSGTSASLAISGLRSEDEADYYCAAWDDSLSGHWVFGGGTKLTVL
# B13: 2L-6 (antibody, V domains shown)
# VH: B12 VH
# VL: SVLQPQPPSASRHPGQRVTISCLHGSSSNIGNNYVSWYQQLPGTDPKLLIYRNNHAASGVPDRFSGSKSGTSASLAISGLRSEDEADYYCAAWDDSLSGHWVFGGGTKLTVL
# B14: 2L-3 (antibody, V domains shown)
# VH: B12 VH
# VL: QSVLTHRPSASGTPGQRVTISCSGSSSNIGSNYGYWYQQLPGTAPKLLIYRNNQRPSGVPDRFSGSKSGTSASLAISGLRSEDEADYYCAAWDDSLSGHWVFGGGTKLTVL
# B15: 2L-9 (antibody, V domains shown)
# VH: B12 VH
# VL: B14 VL with Q1S, H6Q, R7P, S27T, G34A, Q39Y, S66F, I76V
# B16: 2L-11 (antibody, V domains shown)
# VH: B12 VH
# VL: B14 VL with Q1Y, H6D, R7H, G34V, Q39E, R51N, D86Y
# B17: ZK2B10 (antibody, V domains shown)
# VH: B12 VH
# VL: B1 VL
# B18: 2L-2 (antibody, V domains shown)
# VH: B12 VH
# VL: B14 VL with T13H, S31N, G34V
# B19: 2L-8 (antibody, V domains shown)
# VH: B12 VH
# VL: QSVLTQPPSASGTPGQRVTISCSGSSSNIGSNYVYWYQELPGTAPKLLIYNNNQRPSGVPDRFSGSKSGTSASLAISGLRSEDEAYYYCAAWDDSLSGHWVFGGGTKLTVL
# Molecular target: ZIKV E protein (GZ01) (Zika virus (strain GZ01))
# Test: ELISA
row,Binder,EC50 [ng/mL]
1,B1,7.5
2,B2,5.2
3,B3,6.2
4,B4,5.3
5,B5,4.2
6,B6,242
7,B7,23.7
8,B8,4.6
9,B9,> 500
10,B10,5.8
11,B11,6.5
12,B12,> 500
13,B13,356
14,B14,> 500
15,B15,> 500
16,B16,> 500
17,B17,3.3
18,B18,216
19,B19,> 500

# Molecular target: T1, ZIKV E DIII protein (residues 301-403) (Zika virus (strain GZ01))
# T1 chain: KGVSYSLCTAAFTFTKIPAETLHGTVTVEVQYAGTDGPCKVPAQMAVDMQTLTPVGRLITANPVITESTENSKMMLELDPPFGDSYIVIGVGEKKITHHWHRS
# Test: ELISA
row,Binder,EC50 [ng/mL]
1,B1,10
2,B2,11.2
3,B3,4.8
4,B4,3.4
5,B5,5.9
6,B6,215
7,B7,39
8,B8,3.9
9,B9,> 500
10,B10,4.1
11,B11,8.4
12,B12,> 500
13,B13,335
14,B14,> 500
15,B15,> 500
16,B16,> 500
17,B17,7.1
18,B18,267
19,B19,> 500
